Laboratory results taken from patent publication US20260200991A1.

Target: Flag tagged HIV-1 Env with the 7aa Erbin PDZ domain binding sequence fused to its C-terminus (HIV-1)
Assay: cell-based or functional assay

Ebola VP40-Erbin PDZ fusion protein
normalized VLP ELISA (Env display on VLPs) (fold decrease): 2
